Measurements published in patent US20170304442A1 (SORRENTO THERAPEUTICS, published 2017).
Residue numbers refer to the chain shown, from its start.

B1: WIr2A7 (antibody, V domains shown)
VH: QVQLVQSGAEVKKPGASVKVSCKVSGYTLTELSIYWVRQAPGKGLEWVGGFDPEDGETVYAQNFQGRVTMTEDTSTDTAYMELSSLRSEDTAVYYCATHTSYDKVWGRYRPSLAFDIWGQGTMVTVSS
VL: DIVMTQTPSSLSASVGDRVTITCQASQDISKYLNWYQQKPGKAPNLLIYDASNLETGVPSRFSGSGSGTDFTLTISSLQPEDIGTYYCQQDDNLPLTFGGGTKVEIK
notes: Fully human IgG; also called Wlr2A7
B2: WIr2B5 (antibody, V domains shown)
VH: EVQLVESGAEVKKPGASVKVSCKASGYTFTSYGISWVRQAPGQGLEWMGWISAYNGNTNYAQKLQGRVTMTTDTSTSTAYMELRSLRSDDTAVYYCARDWDSTSWENYYYGMDVWGQGTTVTVSS
VL: B1 VL with K31N, N45K, L73F, G84A, D91H, V104L
notes: Fully human IgG; also called Wlr2B5
B3: WI2D9 (antibody, V domains shown)
VH: EVQLVQSGAEVKRSGASVKVSCKLSGDTLTDLSIHWVRQAPGKGLEWMGGFDFEDGEIVYGDKFKGRVTVTEDPSTDTAYMDLKRLTFEDTAIYYCATIKDIPGRYYFDFWGQGTLVTVSS
VL: QSVVTQPPSVSGAPGQRVTISCTGSSSNIGAGYDVHWYQQLPGTAPKLLIYGNSNRPSGVPDRFSGSKSGTSASLAITGLQAEDEADYYCQSYDSSLSGSNWVFGGGTKLTVL
notes: Fully human IgG; also called Wl2D9
B4: WIr2A6 (antibody, V domains shown)
VH: EVQLVQSGGGLVKPGGSLRLSCEASGFTVSSYYMNWIRQAPGKGLEWISSFTAEGSTYYADSVRGRFSISRDNAKNSLYLEMTRLRADDTAVYYCARDLDRRDWYGGYFDSWGQGTLVTVSS
VL: LPVLTQPPSVSGAPGQRLTISCTGSSSNIGAGYGVHWYQHLPGSAPKLLIYGNSNRPSGVTDRISGSKSGTSASLAITGLQTGDEADYYCAAWDSYLSGYVFGTGTKVTVL
notes: Fully human IgG; also called Wlr2A6
B5: WIrF8 (antibody, V domains shown)
VH: EVQLLESGAEVKKPGASVKVSCRVPGYSLSELSMHWVRQAPGKGLEWMGGFDPEDGETIYAQKFQGRVTMTEDTSTDTAYMELSSLRSEDTAVYYCAASGGWEVHDAFDTWGQGTMVTVSS
VL: DIVMTQSPSSLSASVGDRVTITCRASQDISYYLAWYQQKPGKAPELLIYAGSSLQSGVPSRFSGSESGTDFTLTISSLQPEDVASYYCQQYKTAPYTFGQGTKLEIK
notes: Fully human IgG; also called WlrF8
B6: WIr1B11 (antibody, V domains shown)
VH: EVQLVQSGAEVKKPGASVKVSCKASGYTFTSYDINWVRQATGQGPEWLGWLNPGSGKTGNAQNFQGRVFMTWDTSKDTAYMEMSSLRSDDTAVYYCARNLDYWGQGTLVTVSS
VL: DIVMTQTPSSLSASVGDRVTITCRASQSISSYLNWYQQKPGKAPKLLIYAASSLQSGVPSRFSGSRSGTDFTLTITNVQPEDFATYYCLQAYDFPITFGQGTKVEIK
notes: Fully human IgG; also called Wlr1B11
B7: WIr2B11 (antibody, V domains shown)
VH: B6 VH
VL: AIQLTQSPSTLSASVGDRVTITCRASQSISSWLAWYQQKPGKAPKLLIYATSRLQSGVPSRFSGSGSGTDFTLTINSLQPEDFATYYCQQYKSYPVTFGPGTKVDIK
notes: Fully human IgG; also called Wlr2B11
B8: WIr1G5 (antibody, V domains shown)
VH: QVQLVESGGGLIQPGGSLRLSCAASGFTVSSNYMSWVRQAPGKGLEWVSVIYSGGSTYYADSVKGRFTISRDNSKNTLYLQMNSLRAEDTAVYYCARFSGWNAFDIWGQGTMVTVSS
VL: DIVMTQTPSTLSASVGDRVTITCRASQSISSWLAWYQQKPGKAPKLLIYKASSLESGVPSRFSGSGSGTDFTLTISSLRPEDFATYYCQHSSTFGQGTRLEIK
notes: Fully human IgG; also called Wlr1G5
B9: WIr1E2 (antibody, V domains shown)
VH: QMQLVQSGAEVKEPGSSVKVSCKASGDNSYPLNWVRQAPGQGLEWMGGIIPIFGTPNYAQKFEGRVTITADESTNTAYMEISSLRFEDTAMYYCAREGDGYNYSPLDYWGQGTLVTVSS
VL: QAVLTQPPSVSKGLRQTATLTCTGDSSNVGNQGAAWLQQHPGLPPKVLSYRNNSRPSGISERLFVSRSGNSASLTITGLQPEDEADYYCSAWDSSLGAWVFGGGTQLTVL
notes: Fully human IgG; also called Wlr1E2
B10: WIr1G10 (antibody, V domains shown)
VH: QVQLQQSGPGLVKPSQTLSLTCAISGDTVSSNSAAWNWIRQSPSRGLEWLGGTYYRSKWYNDYAVSVKSRITINPDTSKNQFSLQLNSVTPEDTAVYYCTRSAPAAFDYWGQGTLVTVSS
VL: QSVVTQPPSVSAAPGQKVTISCSGSTSNIGNNYVSWYQQLPGTAPKLLIYDNNKRPSGIPDRFSGSKSGTSATLGITGLQTGDEADYYCGTSDTSLSIYVFGTGTKVTVL
notes: Fully human IgG; also called Wlr1G10
B11: WIr2B12 (antibody, V domains shown)
VH: EVQLVQSGAEVKKPGASVKVSCKASGYTFTSYYMHWVRQAPGQGLEWMGIINPSGGSTSYAQKFQGRVTMTRDTSTSTAYMELSSLRSEDTAVYYCARDIDDYGDGVWGQGTMVTVSS
VL: B10 VL with V4L, T26S, G30A, K54E, S92W, T94G, I98A, Y99G, T103G, V107L
notes: Fully human IgG; also called Wlr2B12
B12: WI1E6 (antibody, V domains shown)
VH: EVQLLESGGGVVQPGRSLRLSCAASGFTFSSYGMHWVRQAPGKGLEWVAVIWYDGSNKYYADSVKGRFTISRDNSKNTLYLQMNSLRAEDTAVYYCARGSAFNIWGQGTMVTVSS
VL: QAVVTQPASVSGSPGQSITISCIGTSSDVGGYNYVSWYQQHPGKAPKLMIYDVSNRPSGVSNRFSGSKSGNTASLTISGLQAEDEADYYCSSYTTSNTFVFGTGTKVTVL
notes: Fully human IgG; also called Wl1E6
B13: WI1A6 (antibody, V domains shown)
VH: B12 VH
VL: LPVLTQPASVSGSPGQSITITCTGTSSDVGAYNYVSWYQQRPGKAPKLMIYDVSKRPSGVSNRFSGSKSGNTASLTISGLQAEDEADYYCSSYTSSSTYVVFGGGTKLTVL
notes: Fully human IgG; also called Wl1A6
B14: WIr2A2 (antibody, V domains shown)
VH: EVQLVQSGAEVKKPGASVKVSCKVSGYTLTELSMHWVRQAPGKGLEWMGGFDPEDGETIYAQKFQGRVTMTEDTSTDTAYMELSSLRSEDTAVYYCATFMFDHDWFQLDPWGQGTLVTVSS
VL: QSALTQPPSASGTPGQRVTIACSGSSSNIGTNTVNWYQQLPGTAPKLLIYNNNQRPSGVPDRFSGSKSGTSASLAITGLQAEDEADYYCQSYDRSLSGYVFGSGTKLTVL
notes: Fully human IgG; also called Wlr2A2
B15: WIr2B8 (antibody, V domains shown)
VH: EVQLVQSGAEVKKPGSSVKVSCKASGGTFSSYAISWVRQAPGQGLEWMGGIIPIFGTANYAQKFQGRVTITADESTSTAYMELSSLRSEDTAVYYCARGQPFRDSSGYYWSYFDYWGQGTLVTVSS
VL: SYELTQPPSVSKDLRQTATLTCTGNSNNVGNQGAAWLQQHQGHPPKLLSDRNNNRPSGISERLSASRSENIASLTITGLQPEDEADYFCAAWDTSLNTFLFGGGTKLTVL
notes: Fully human IgG; also called Wlr2B8
B16: WIr1B6 (antibody, V domains shown)
VH: QVQLVESGGGLVQPGGSLRLSCAASGFTFDDYAMHWVRQAPGKGLEWVSGISWNSGSIGYADSVKGRFTISRDNAKNSLYLQMNSLRAEDTALYYCAKVRAAAGTGGDYFDYWGQGTLVTVSS
VL: LPVLTQPRSVSGSPGQSVTISCTGSSSDVGRSNFVSWYQQYPGKAPKLMIFDVNKRPSGVPDRFSGSKSGNTASLTISGLQADDEAEYYCSSYAGTWIFGGGTQLTVL
notes: Fully human IgG; also called Wlr1B6
B17: WIr2A9 (antibody, V domains shown)
VH: QVQLVESGAEVKKPGASVKVSCKVSGYTLTELSMHWVRQAPGKGLEWMGGFDPEDGETIYAQKFQGRVTMTEDTSTDTAYMELSSLRSEDTAVYYCATGGSYYYGSGSYGSRPGYFDLWGRGTLVTVSS
VL: QSVLTQPASVSGSPGQSITISCTGTSSDVGSYNLVSWYQQHPGKAPKLMIYEGSKRPSGVPDRFSGSKSGNTASLSISGLQAEDEADYYCSSYTSSSTLVFGGGTKLTVL
notes: Fully human IgG; also called Wlr2A9
B18: WI1A5 (antibody, V domains shown)
VH: QVQLVQSGREMKKPGASMKVSCKASGYTFTKYGISWVRQAPGQGLEWMGWISADNGKTHYAQKLQGRVTMTTDTSTSTAYLELRRLRSDDTAVYFCANDGGYWGQGTLVTVSS
VL: QSVLTQPPSVSGAPGQRVTISCTGTSSNLGAGFPVYWYQQLPGKPPKVLIDGNNDRPSGVPDRVSGSKSDTSASLAITGLQAEDEADYYCLSYDSGLDGWVFGGGTKLTVL
notes: Fully human IgG; also called Wl1A5

Key:
[1] = target: T1, recombinant human WISP1/His (human, UniProt O95388 23-367); experiment: ELISA screening
T1 construct: also called hWISP1; recombinant human WISP1 protein; not shown: His tag
T1 sequence (looked up): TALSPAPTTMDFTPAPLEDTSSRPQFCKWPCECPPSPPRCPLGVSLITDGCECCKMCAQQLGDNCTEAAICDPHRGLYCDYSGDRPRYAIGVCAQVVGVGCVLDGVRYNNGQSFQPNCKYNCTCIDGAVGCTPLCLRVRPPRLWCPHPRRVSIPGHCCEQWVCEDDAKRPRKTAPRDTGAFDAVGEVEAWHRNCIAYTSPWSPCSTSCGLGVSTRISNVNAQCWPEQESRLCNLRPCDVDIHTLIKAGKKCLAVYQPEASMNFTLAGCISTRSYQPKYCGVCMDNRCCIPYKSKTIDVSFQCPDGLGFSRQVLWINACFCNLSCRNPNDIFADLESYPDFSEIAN

[2] = target: T2, recombinant mouse WISP1/His (mouse, UniProt O54775 23-367); experiment: ELISA screening
T2 construct: also called murine WISP1; mWISP1; not shown: His tag
T2 sequence (looked up): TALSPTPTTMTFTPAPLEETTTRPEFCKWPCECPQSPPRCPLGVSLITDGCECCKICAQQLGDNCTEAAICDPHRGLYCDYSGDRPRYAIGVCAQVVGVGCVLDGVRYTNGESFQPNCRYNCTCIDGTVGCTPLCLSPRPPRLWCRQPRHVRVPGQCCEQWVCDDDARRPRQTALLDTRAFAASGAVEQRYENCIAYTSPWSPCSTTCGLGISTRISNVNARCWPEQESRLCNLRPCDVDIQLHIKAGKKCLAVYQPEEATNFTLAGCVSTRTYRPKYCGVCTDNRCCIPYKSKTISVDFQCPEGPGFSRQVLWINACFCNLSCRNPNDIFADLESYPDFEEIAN

Row | binding result [1] | binding result [2] | Binder
1 | binds | binds | B1
2 | binds | binds | B2
3 | binds | binds | B3
4 | binds | binds | B4
5 | binds | binds | B5
6 | binds | binds | B6
7 | binds | binds | B7
8 | binds | binds | B8
9 | binds | binds | B9
10 | binds | binds | B10
11 | binds | binds | B11
12 | binds | binds | B12
13 | binds | binds | B13
14 | binds | binds | B14
15 | binds | binds | B15
16 | binds | binds | B16
17 | binds | binds | B17
18 | binds | binds | B18
